Results published in article PMC6104738.

Target: EBOV GP [change] (residues 1-636; strain Makona) (Zaire ebolavirus (EBOV), strain Makona)
Test: negative-stain electron microscopy; purified EBOV GP ΔTM alone

## EBOV GP [change] (residues 1-636; strain Makona) (domain or fragment)
  stoichiometry N: 3
